Laboratory results reported in the DeepSol protein solubility set.

assay: soluble on expression in E. coli; label from the status in PepcDB or PDB records

Sequence	soluble on expression in E. coli
MIVSMIAALANNRVIGLDNKMPWHLPAELQLFKRATLGKPIVMGRNTFESIGRPLPGRLNIVLSRQTDYQPEGVTVVATLEDAVVAAGDVEELMIIGGATIYNQCLAAADRLYLTHIELTTEGDTWFPDYEQYNWQEIEHESYAADDKNPHNYRFSLLERVK	soluble
MLETLSFTERDEFQRRNIAENIIKLLKPEADISPLVIDGAWGTGKSEFSIKLKNLIIEQETESKVVYVDAFKGDHAESPLLLITSAIASILPEEEKQNFIKRSLPAIRFGLKTVLKAGAGWFLRQEASEVAEEFQDAMKKASNAAIDGTIENILEDHMESEKNINSLKSCIEDISNKQKIVIIIDELDRCKPSFSTNIIETIKHIFDINNVFFILVTNTEQLKASINHIYGYSINSQKYLDKFIKYTITLPDTCLINGHNVCKTSVIYWDHLVGETTLLNKINSLVGSFICDLIQRTNLSLRETQTFSRNLNIFRLLNDNECKSNDPFINMIVVVAVFIHCFGDKEKLKQEITAESISYLADLLNIKEIPYSYERRSQIPEISIIFFGIIKDSITLNERFAPKSDEELKKFTNVYTDYEHLKFWSTTPRELMIKYINQMSFIQLEHHHHHH	not soluble
GSHMTIQKVHGREVLDSRGNPTVEVEVTTEKGVFRSAVPSGASTGVYEACELRDGDKKRYVGKGCLQAVKNVNEVIGPALIGRDELKQEELDTLMLRLDGTPNKGKLGANAILGCSMAISKAAAAAKGVPLYRYLASLAGTKELRLPVPCFNVINGGKHAGNALPFQEFMIAPVKATSFSEALRMGSEVYHSLKGIIKKKYGQDAVNVGDEGGFAPPIKDINEPLPILMEAIEEAGHRGKFAICMDCAASETYDEKKQQYNLTFKSPEPTWVTAEQLRETYCKWAHDYPIVSIEDPYDQDDFAGFAGITEALKGKTQIVGDDLTVTNTERIKMAIEKKACNSLLLKINQIGTISEAIASSKLCMENGWSVMVSHRSGETEDTYIADLVVALGSGQIKTGAPCRGERTAKLNQLLRIEEELGAHAKFGFPGWS	soluble
MRKMNLIVAMDAEGGIGKNGVLPWRIKKDMQYFASVTKNVSDQSKRNAVLMGRKCWESIPVTRRPLAGRLNIVLSRQLPAQKSDDYIVVNSLEAAMKLLSEPPFVDSIETIWNIGGAEIYDLALRENLVDEIHLTRIFKNFEADVHLKSLDFSKMEKVQNAEVSSENSEIFEENGLKFEFCKWKVVENH	not soluble
MDAENEDFDGAEDSDHTDNDKKEDELSLDNVLRLGGTKADYVMLAGISDTTELINGGKKVIIDDLEEGELEDFIKQLGIRAYADQQIIQDEEDPASSEPTQKEGKKAKGSKVKEDAAPNVKNKVTPSTQATKTSVQSTNLANATGKKAKQKPANLFEFIPRQFLLIKPGGKWFDIEYTSEGTSVAQNESLTCQYKALAQKLYENETALYKSKKSLQKGANSAWMKTRKLRTFSQHPFEELEEKSSGNKDTRDRRLILWYFEHQLKLQIADFVVTLDELAHDMVEATKMRALTTAYELLCNQPEQEKLLLVQIVNKLEDA	soluble
MISSGWMQEMEPIPEEGTEADGSEWGAMSDTAKRTMRKKEVYTSEQINTLVSTVPKEAVPQEWLVENQVVDPEMATSYLTESLAGPTSARGSSYSYSYESHYDNPPEEEYEHFTNDDGVHQMQKVTRVTKVTTTRSVRQVPVQSPYSNIDFDSSGLPTPSPVIDRDPSLEMMARMGGASDHDSEDRSAPPPAPASRFLHEDSGIPSAPGVPDVVDAGIGEVTVVWSAPLQSNGGEVRGYQIEMREFPDGEWESMGVDHLLKDTTCRVTNLTSHEVQFRVSAYGRTGFGPASNPSLPVKIPISETDLATSAGAPLAPGRPTVIAVDGQGVLLEWTPPVADVHSSPPQGYQVEYRVYGSRDWIVANEQLVQENVFTVESLRPNGVYEFRVRGKNQDGLGHPSMSSGGVAIRPAAPQRHVPARKVSESVQPPGQPQMVEVGDDVVKLEWAPSVQNARYIVEYREVGDPEWHTANYDPIVQNGIQVEGLHRNSTYEFCVISIVDNIASQPSETSDIIHLRPTCNTSALRPAPNILEAPEFLEVDGDKITICWLPAQSQLPVMGYDVEFRDLQQDDRWYKVNDQPVFACKMTVGDLIMDHDYQFRVLAHNASGCSQPSPPSDFVHIEPSTNRFSSDTMESPHLGHHDVVKYVEAERFGAVPLLQEEMVRESPPLPERDDSPPPLRRANNNVQWRDPSLKEVIEYLSSADKDKQLNASGYLQHLTYTDNQIKEETREYGGIPKLIALLRSDTPRIQKNACACLKNLSFGKENDANKLAVMEADGVRLIAEVLRTTHDASVKEEAAAALWNLSSADMLKPVILESATEILSQQVIAPVLAVGTSDPTRHFGSTLFKNSTGVLRNVSAASQQARRRLRDIPNLIEALVHFLTHAIQKSQVDSPTVENAVCLLRNLSYRIQEVVDPNYDPAAAHSSSSKNMKHVASPKPEKKKKDKEKKKDKNPKNIVTGPSVLWQPHVVKLYLKLLQDSSNIETLEASAGAIQNLAACQFPPSAEVRAAVRVEKGLPVLVELIRLPEDFVVCAVATALRNLAIDPRNRELIGKYALRDFLDKLPEPGSPRRSAISDQTIGAVLGILFEIVRSSAAYTKDVHELKGTDKLRALSRSYPTYSHRVCKYASQVLYVMWQHKELHDGFKRSGLKEADFYSGTARRGDSSTLARPISSQGRERPSMHQLDETLSSGGGYGTMESNNRAGTLRPASATSQTIQRRYDQVPRDGPVYSSVQKPSPRGGGGGGNIDDSWV	not soluble
MKTKQTIAASTLALAMIAGANSAHAEVNDATPQQSTGDRLAEIKQHKQGLDAKLQQHKENVDQTLNELNKVKENVDTKVNELHERKQVADEKINEIKQHKQELDAKLQQDKQIAEDKIAEIKEHKKQVEDKVAEVKEHKQNIDNKVNEIKEHKQTVDEKVNEMKQHKENIDQKVNELKEVKKQVDEKLAELKKAKQTAEDKLAELKENKPNTGNTLEELKKIKSNLDSLSANLELAKQDVKNKLAALQEARQDLINKINEIKQSKQTVSDDLSKKKQDLDIKINDFKHTEKKIDDKLAEIHTTKQNIDNKINEVSQSKQTETKTGTTNANNNARELPNAGSKQSNNMALGMLSVLGGILLVTRNKIKTLFSK	not soluble
ANKNKGFEGVAWDPRRQQLLLGEERPPALYTWKSDGSNVLKGDKQSLLSRALDMRNLSSLSIDPRTGHMLALSADSHMLLEVDEQGNQVSFMTLLGGMNGLKD	not soluble
MGSDKIHHHHHHMTQVHFTLKSEEIQSIIEYSVKDDVSKNILTTVFNQLMENQRTEYIQAKEYERTENRQSQRNGYYERSFTTRVGTLELKVPRTRDGHFSPTVFERYQRNEKALMASMLEMYVSGVSTRKVSKIVEELCGKSVSKSFVSSLTEQLEPMVNEWQNRLLSEKNYPYLMTDVLYIKVREENRVLSKSCHIAIGITKDGDREIIGFMIQSGESEETWTTFFEYLKERGLQGTELVISDAHKGLVSAIRKSFTNVSWQRCQVHFLRNIFTTIPKKNSKSFREAVKGIFKFTDINLAREAKNRLIHDYIDQPKYSKACASLDDGFEDAFQYTVQGNSHNRLKSTNLIERLNQEVRRREKIIRIFPNQTSANRLIGAVLMDLHDEWIYSSRKYINFDK	not soluble
MTMYQTINEWVDYIDKGCSVLHLDFNVFKKELSLDIKVFEDEGEYTHKISFQNVASAYYSADVGDMRLEKIDPEEYNWQVFEMSYHPEGIGNLSNSIIPEYQSNANFLIDMNRMLIAIEAETVRFDDQSFYAYQLNTKLEHHHHHH	soluble
MRKTKIVCTIGPASESEEMIEKLINAGMNVARLNFSHGSHEEHKGRIDTIRKVAKRLDKIVAILLDTKGPEIRTHNMKDGIIELERGNEVIVSMNEVEGTPEKFSVTYENLINDVQVGSYILLDDGLIELQVKDIDHAKKEVKCDILNSGELKNKKGVNLPGVRVSLPGITEKDAEDIRFGIKENVDFIAASFVRRPSDVLEIREILEEQKANISVFPKIENQEGIDNIAEILEVSDGLMVARGDMGVEIPPEKVPMVQKDLIRQCNKLGKPVITATQMLDSMQRNPRATRAEASDVANAIYDGTDAVMLSGETAAGLYPEEAVKTMRNIAVSAEAAQDYKKLLSDRTKLVETSLVNAIGISVAHTALNLNVKAIVAATESGSTARTISKYRPHSDIIAVTPSEETARQCSIVWGVQPVVKKGRKSTDALLNNAVATAVETGRVSNGDLIIITAGVPTGETGTTNMMKIHLVGDEIANGQGIGRGSVVGTTLVAETVKDLEGKDLSDKVIVTNSIDETFVPYVEKALGLITEENGITSPSAIVGLEKGIPTVVGVEKAVKNISNNMLVTIDAAQGKIFEGYANVL	not soluble
MRGSHHHHHHGSMQYALLFPGQGSQCIGMGKSFYEGHTLAKELFERASNALKVDMKKTLFEENELLKESAYTQPAIYLVSYIAYQLLNKQANGGLKPVFALGHSLGEVSAVSLSGALDFEKALKLTHQRGKMMQEACANKDASMMVVLGVSEESLLSLCQRTKNVWCANFNGGMQVVLAGVKDDLKALEPTLKEMGAKRVVFLEMSVASHCPFLEPMIFKFQELLEKSLKDKFHFEIISNATNEAYHNKAKAVELLSLQLTQPVRYQDCVKSNNDRVDIFFELGCGSVLKGLNKRLSNKPTISVGDNKGLDEAIEFLEEYV	soluble
MTEDEWEKQSSFVPVNADPLSPYTEKVKTLAAHRLDFHIRENLRLGVGELTMIGGKYPDLFAVSPFSIWHNNYNEGYTNSMASFDFSWVPKKGFEVHGEFVLDDLVGTTENESKPTAYAFNVGVRRALSTGSLKGVLGVEYALATKFVYNTFLPYLKFNNRIVYLTNLPSSRTIVDYPVGFAFGPDAKLLNVSFDLFKENVSLETDFFYLVKGPNTLYTEYPTAEEGETKTIFGASLRGKIGHVSFSLLFSGSEFLAGLGIEFGF	not soluble
MAGQSKIIVGGVIGGTSEQEPKGFLDLPVELYQKIIGKLDLHERFRVRKSNQTLRQFIDQMDPAISQIRVSISDSDKCDDWVSRSVRVMAEMLSSSIYPDVKNISTCGLPSSQIAQILPSFQAGKLENLDLYYCGKPTAEDMETIVNSDQWKNAKNISGFRGLSNIRIKDLLHFSLVCVDYATISVETAIEIKDILLTSSNIKHAYFTSKSVLDVNVIRVFDPKAAKVHRKRNLSNLVRNTDFADFTFSSNQKVLRFKKKN	not soluble
SKKQLDMSQKKTLTIDSELRFDELSLDTVRDFEKLAPFGMDNKKPVFLLKDFKVSQARVMGQNGAHLKLKLEQDGQALDLVAFNMGSQLQEFQQAQHLELAVTLSVNQWNGATTLQ	not soluble
MGSDKIHHHHHHMNIIPYRVTLLEPLLATRIAGDPNSGVSYPYVPGSLVRGAAVAMYARNKGIVAVDAREEEARRLFFDGRTRYLNAYPADASGRRTLPTPRSLFHVEGEESPIYDFALEVIDAVNEETVQFVGAARDSQPFCRIDDSNIFFISPKRRINVHTQRDRVKGRATEVSGAVFQYDALEEGQTFAGWVLVDKDDDVELLSSLLRHIYRLGGSSNSGYGRVTVAVDAPQNIQVWREIPKQIVPIDAGETFVVTLLSDTLVRDPNTGQYTWDLRPALQQLLSVEIEHIHPIAGEEEQRSVWRLDEVGGFNRAWGLPLPQAQAIAGGSVFVFRARSPIPAQTIAGAEWDGIGERRAEGFGRLAFNWQTETELIRVDPPVVSLIDQLVPNLDGPARNIAQQMAMRMLRRELDAKLRKAINDIRPKHLSISNTQLSRLRIIAREALPNGDLARLQKYLDENIKTRRSVRDQFDRTRLGSEERLSQWLEERLSQPETVWDKIGAQTLSKRIGANVLVSTRDDTELAREYTIRLIDGVLARLAKERRREDGGRQ	not soluble
